Experiments:
GST-JNK1α1 = GST-JNK1α1 (UniProt P45983); assay: pull-down; GST-JNK isoform (2 μg) or unfused GST on glutathione beads, rotated 1 h at +4 °C with cleared 293T lysate holding the luciferase fusion (7,000 units), low-salt buffer with 0.5% Igepal, washed three times; luciferase on beads as per cent of input
JNK (Homo sapiens) = JNK (Homo sapiens) (UniProt P45983); conditions: cited from earlier work

ratio of pulldown, lit-state mutant against dark-state mutant (GST-JNK1α1)	Substance	Kd (JNK (Homo sapiens))
30 fold	luciferase-fused OptoJNKi.lsm (AsLOV2Jα I539E-JIP11) (from UniProt Q9UQF2 157-167) (designed binder)	
	JIP peptide (from UniProt Q9UQF2)	800 nM
